Measurements published in publication PMC12301738 (The Journal of Biological Chemistry, 2025).

T1: Escherichia coli RelE toxin, fluorescently labeled (RED-NHS) (Escherichia coli, UniProt P0C077)
T1 sequence: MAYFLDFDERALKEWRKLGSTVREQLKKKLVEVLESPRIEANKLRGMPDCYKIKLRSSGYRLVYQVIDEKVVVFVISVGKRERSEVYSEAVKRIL

B1: Escherichia coli RelB antitoxin, wildtype (His6-RelB) (natural protein)
chain: MGSINLRIDDELKARSYAALEKMGVTPSEALRLMLEYIADNERLPFKQTLLSDEDAELVEIVKERLRNPKPVRVTLDEL
B2: Escherichia coli RelB antitoxin truncated at Lys70 (His6-RelBΔ70–79) (domain or fragment)
chain: MGSINLRIDDELKARSYAALEKMGVTPSEALRLMLEYIADNERLPFKQTLLSDEDAELVEIVKERLRNP
B3: Escherichia coli RelB antitoxin with a stop codon at Leu66 (His6-RelBΔ66–79) (domain or fragment)
chain: MGSINLRIDDELKARSYAALEKMGVTPSEALRLMLEYIADNERLPFKQTLLSDEDAELVEIVKER

biological target: T1, Escherichia coli RelE toxin, …; test: other fluorescence titration

**Q.** For B1, which EC50 is on record?
**A.** Its EC50 is 0.0026 µM.

**Q.** B2 was tested. Which EC50 did it give?
**A.** The EC50 was 0.88 µM.

**Q.** Which EC50 does the source give for B3 here?
**A.** Its EC50 is 24 µM.
